Laboratory results: patent publication US20150344570A1 (published 2015)

T1: FcγRIIb extracellular domain with C-terminal His tag (human, UniProt P31994 43-217)
T1 construct: extracellular domain; also called FcgRIIb; 2b
T1 sequence (looked up): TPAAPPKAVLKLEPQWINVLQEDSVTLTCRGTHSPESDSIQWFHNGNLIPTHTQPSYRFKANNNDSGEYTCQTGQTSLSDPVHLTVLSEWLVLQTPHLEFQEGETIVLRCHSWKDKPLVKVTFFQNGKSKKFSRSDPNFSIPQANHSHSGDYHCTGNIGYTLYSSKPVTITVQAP

B1: GpH7-B3 variant L235_04F/GpL16-k0 (antibody, human IgG1, kappa)
heavy: not shown
light: DIVMTQSPLSLPVTPGEPASISCQASESLVHSNRNTYLHWYLQKPGQSPQLLIYKVSNRFSGVPDRFSGSGSGTDFTLKISRVEAEDVGVYYCSQNTHVPPTFGQGTKVEIERTVAAPSVFIFPPSDEQLKSGTASVVCLLNNFYPREAKVQWKVDNALQSGNSQESVTEQDSKDSTYSLSSTLTLSKADYEKHKVYACEVTHQGLSSPVTKSFNRGEC
notes: also called Ho Ab L235_04F
B2: GpH7-B3 variant L235_09D/GpL16-k0 (antibody, human IgG1, kappa)
heavy: not shown
light: B1 light
notes: also called Ho Ab L235_09D
B3: GpH7-B3 variant L235_15Y/GpL16-k0 (antibody, human IgG1, kappa)
heavy: not shown
light: B1 light
notes: also called Ho Ab L235_15Y
B4: GpH7-B3 variant L235_20W/GpL16-k0 (antibody, human IgG1, kappa)
heavy: not shown
light: B1 light
notes: also called Ho Ab L235_20W
B5: GpH7-B3 variant L328_02A/GpL16-k0 (antibody, human IgG1, kappa)
heavy: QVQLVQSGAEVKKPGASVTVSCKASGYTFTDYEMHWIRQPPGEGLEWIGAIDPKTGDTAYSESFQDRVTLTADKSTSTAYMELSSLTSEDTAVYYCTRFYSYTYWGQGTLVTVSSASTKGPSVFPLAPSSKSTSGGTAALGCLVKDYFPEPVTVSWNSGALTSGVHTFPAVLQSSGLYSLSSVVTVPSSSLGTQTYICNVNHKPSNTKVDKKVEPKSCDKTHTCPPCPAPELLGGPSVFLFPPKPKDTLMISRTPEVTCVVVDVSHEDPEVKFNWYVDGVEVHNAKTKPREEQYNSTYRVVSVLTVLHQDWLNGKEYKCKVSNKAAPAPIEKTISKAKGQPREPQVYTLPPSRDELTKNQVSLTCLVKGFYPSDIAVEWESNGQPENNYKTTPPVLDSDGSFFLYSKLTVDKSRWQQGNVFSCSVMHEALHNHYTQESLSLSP
light: B1 light
notes: also called Ho Ab L328_02A
B6: GpH7-B3 variant L328_09D/GpL16-k0 (antibody, human IgG1, kappa)
heavy: not shown
light: B1 light
notes: also called Ho Ab L328_09D
B7: GpH7-B3 variant L328_10E/GpL16-k0 (antibody, human IgG1, kappa)
heavy: not shown
light: B1 light
notes: also called Ho Ab L328_10E
B8: GpH7-B3 variant L328_13S/GpL16-k0 (antibody, human IgG1, kappa)
heavy: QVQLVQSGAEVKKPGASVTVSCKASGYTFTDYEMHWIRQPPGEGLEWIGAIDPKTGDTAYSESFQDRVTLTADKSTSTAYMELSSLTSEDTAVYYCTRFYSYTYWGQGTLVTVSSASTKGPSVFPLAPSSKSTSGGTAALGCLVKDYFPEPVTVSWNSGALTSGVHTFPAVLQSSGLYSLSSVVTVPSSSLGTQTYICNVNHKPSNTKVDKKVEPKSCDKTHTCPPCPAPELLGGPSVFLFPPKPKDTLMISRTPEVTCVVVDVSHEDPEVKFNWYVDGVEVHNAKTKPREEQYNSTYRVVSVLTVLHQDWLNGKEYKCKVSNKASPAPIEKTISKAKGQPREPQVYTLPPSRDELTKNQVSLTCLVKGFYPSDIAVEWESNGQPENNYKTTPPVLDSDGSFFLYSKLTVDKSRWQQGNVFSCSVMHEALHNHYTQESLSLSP
light: B1 light
notes: also called Ho Ab L328_13S
B9: GpH7-B3 variant N325_01G/GpL16-k0 (antibody, human IgG1, kappa)
heavy: not shown
light: B1 light
notes: also called Ho Ab N325_01G
B10: GpH7-B3 variant N325_03V/GpL16-k0 (antibody, human IgG1, kappa)
heavy: not shown
light: B1 light
notes: also called Ho Ab N325_03V
B11: GpH7-B3 variant N325_04F/GpL16-k0 (antibody, human IgG1, kappa)
heavy: not shown
light: B1 light
notes: also called Ho Ab N325_04F
B12: GpH7-B3 variant N325_06M/GpL16-k0 (antibody, human IgG1, kappa)
heavy: not shown
light: B1 light
notes: also called Ho Ab N325_06M
B13: GpH7-B3 variant N325_07I/GpL16-k0 (antibody, human IgG1, kappa)
heavy: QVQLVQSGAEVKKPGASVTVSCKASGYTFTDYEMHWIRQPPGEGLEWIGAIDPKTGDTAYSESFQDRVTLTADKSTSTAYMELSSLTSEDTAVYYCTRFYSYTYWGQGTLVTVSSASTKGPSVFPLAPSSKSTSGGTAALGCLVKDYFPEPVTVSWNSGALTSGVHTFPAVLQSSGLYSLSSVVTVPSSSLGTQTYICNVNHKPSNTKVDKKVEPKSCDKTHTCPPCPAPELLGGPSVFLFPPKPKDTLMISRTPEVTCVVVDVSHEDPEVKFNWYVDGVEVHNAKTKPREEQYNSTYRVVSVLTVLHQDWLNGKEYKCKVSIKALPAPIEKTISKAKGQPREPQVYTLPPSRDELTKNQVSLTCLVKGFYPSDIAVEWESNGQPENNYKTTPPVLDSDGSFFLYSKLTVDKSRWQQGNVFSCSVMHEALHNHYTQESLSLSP
light: B1 light
notes: also called Ho Ab N325_07I
B14: GpH7-B3 variant N325_08L/GpL16-k0 (antibody, human IgG1, kappa)
heavy: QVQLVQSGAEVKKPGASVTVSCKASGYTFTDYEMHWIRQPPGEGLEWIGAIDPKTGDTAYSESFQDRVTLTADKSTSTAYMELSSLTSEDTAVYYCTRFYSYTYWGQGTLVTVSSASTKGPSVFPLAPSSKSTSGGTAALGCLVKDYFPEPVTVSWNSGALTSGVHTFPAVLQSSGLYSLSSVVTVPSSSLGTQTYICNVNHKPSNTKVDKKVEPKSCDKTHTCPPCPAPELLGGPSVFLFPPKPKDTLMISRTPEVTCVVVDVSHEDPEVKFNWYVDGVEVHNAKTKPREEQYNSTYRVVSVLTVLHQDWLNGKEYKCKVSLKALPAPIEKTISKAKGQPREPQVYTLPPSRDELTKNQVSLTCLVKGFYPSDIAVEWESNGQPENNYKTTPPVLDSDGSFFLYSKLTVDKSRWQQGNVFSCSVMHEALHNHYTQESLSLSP
light: B1 light
notes: also called Ho Ab N325_08L
B15: GpH7-B3 variant N325_09D/GpL16-k0 (antibody, human IgG1, kappa)
heavy: not shown
light: B1 light
notes: also called Ho Ab N325_09D
B16: GpH7-B3 variant N325_13S/GpL16-k0 (antibody, human IgG1, kappa)
heavy: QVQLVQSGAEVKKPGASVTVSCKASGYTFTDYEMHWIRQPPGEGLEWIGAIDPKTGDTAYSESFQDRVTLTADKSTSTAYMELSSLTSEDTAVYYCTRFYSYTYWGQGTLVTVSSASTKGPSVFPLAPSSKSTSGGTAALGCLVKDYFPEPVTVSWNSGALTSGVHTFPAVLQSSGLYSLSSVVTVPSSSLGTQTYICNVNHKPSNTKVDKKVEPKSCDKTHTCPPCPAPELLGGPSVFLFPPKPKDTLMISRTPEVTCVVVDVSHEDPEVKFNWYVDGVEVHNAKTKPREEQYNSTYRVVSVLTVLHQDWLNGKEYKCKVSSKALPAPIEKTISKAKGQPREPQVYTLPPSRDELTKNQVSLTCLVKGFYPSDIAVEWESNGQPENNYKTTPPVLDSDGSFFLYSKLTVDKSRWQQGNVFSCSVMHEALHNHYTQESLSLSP
light: B1 light
notes: also called Ho Ab N325_13S
B17: GpH7-B3 variant N325_20W/GpL16-k0 (antibody, human IgG1, kappa)
heavy: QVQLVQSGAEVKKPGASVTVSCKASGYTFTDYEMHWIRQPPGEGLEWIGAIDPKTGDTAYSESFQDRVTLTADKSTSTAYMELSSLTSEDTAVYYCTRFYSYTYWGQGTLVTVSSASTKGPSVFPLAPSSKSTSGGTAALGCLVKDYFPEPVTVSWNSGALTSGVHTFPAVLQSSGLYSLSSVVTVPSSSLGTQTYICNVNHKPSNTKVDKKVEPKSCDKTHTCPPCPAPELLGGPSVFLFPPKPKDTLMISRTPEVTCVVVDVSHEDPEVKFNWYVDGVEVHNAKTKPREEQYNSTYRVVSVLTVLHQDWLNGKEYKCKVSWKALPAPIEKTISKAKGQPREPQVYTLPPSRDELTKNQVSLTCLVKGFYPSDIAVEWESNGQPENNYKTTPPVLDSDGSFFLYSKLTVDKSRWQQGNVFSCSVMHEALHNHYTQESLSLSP
light: B1 light
notes: also called Ho Ab N325_20W
B18: GpH7-B3 variant P238_03V/GpL16-k0 (antibody, human IgG1, kappa)
heavy: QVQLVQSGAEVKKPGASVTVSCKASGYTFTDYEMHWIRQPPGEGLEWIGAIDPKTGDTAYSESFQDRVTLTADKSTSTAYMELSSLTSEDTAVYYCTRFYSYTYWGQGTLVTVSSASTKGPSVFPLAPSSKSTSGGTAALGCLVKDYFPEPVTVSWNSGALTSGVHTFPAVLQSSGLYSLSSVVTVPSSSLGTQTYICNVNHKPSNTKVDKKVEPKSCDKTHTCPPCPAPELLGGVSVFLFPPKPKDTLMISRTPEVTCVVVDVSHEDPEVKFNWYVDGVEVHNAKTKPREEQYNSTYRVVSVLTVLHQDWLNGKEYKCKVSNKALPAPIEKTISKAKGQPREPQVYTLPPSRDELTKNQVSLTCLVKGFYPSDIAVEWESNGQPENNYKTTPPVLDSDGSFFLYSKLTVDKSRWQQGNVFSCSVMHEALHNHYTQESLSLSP
light: B1 light
notes: also called Ho Ab P238_03V
B19: GpH7-B3 variant P238_04F/GpL16-k0 (antibody, human IgG1, kappa)
heavy: not shown
light: B1 light
notes: also called Ho Ab P238_04F
B20: GpH7-B3 variant P238_06M/GpL16-k0 (antibody, human IgG1, kappa)
heavy: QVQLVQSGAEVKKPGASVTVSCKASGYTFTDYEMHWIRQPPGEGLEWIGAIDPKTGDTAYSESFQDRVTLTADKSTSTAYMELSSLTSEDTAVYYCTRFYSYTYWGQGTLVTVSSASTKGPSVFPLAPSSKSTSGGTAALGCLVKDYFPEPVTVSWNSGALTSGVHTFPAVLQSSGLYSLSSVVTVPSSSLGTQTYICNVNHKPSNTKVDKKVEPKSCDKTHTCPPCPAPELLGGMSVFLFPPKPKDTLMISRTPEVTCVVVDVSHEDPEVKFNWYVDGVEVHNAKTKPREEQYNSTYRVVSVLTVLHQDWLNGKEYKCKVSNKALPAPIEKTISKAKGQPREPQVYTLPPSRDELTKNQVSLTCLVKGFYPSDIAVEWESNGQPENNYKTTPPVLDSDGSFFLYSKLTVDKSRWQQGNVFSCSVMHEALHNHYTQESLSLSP
light: B1 light
notes: also called Ho Ab P238_06M
B21: GpH7-B3 variant P238_09D/GpL16-k0 (antibody, human IgG1, kappa)
heavy: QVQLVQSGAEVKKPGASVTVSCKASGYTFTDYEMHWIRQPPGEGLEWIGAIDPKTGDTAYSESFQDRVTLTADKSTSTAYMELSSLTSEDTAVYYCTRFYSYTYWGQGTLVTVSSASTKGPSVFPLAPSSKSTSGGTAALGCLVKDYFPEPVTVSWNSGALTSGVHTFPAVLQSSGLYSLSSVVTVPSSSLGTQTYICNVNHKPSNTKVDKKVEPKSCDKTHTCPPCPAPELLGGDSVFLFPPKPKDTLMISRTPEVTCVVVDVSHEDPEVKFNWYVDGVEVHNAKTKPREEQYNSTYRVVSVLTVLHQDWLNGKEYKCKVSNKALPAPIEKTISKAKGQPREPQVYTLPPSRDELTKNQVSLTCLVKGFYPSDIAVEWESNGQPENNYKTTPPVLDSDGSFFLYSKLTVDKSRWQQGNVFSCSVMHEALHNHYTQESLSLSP
light: B1 light
notes: also called Ho Ab P238_09D
B22: GpH7-B3 variant P238_10E/GpL16-k0 (antibody, human IgG1, kappa)
heavy: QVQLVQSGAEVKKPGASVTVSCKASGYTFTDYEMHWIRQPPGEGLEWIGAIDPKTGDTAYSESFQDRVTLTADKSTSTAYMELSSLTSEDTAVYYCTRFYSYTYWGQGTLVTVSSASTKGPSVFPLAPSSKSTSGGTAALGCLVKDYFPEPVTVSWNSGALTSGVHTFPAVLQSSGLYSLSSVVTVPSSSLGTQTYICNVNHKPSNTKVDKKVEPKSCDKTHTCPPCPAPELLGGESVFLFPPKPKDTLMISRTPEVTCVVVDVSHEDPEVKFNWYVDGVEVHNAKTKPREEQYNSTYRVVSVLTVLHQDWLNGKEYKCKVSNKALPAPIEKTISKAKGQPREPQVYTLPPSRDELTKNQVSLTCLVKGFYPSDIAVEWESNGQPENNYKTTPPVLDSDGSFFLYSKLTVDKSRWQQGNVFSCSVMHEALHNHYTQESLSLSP
light: B1 light
notes: also called Ho Ab P238_10E
B23: GpH7-B3 variant P238_15Y/GpL16-k0 (antibody, human IgG1, kappa)
heavy: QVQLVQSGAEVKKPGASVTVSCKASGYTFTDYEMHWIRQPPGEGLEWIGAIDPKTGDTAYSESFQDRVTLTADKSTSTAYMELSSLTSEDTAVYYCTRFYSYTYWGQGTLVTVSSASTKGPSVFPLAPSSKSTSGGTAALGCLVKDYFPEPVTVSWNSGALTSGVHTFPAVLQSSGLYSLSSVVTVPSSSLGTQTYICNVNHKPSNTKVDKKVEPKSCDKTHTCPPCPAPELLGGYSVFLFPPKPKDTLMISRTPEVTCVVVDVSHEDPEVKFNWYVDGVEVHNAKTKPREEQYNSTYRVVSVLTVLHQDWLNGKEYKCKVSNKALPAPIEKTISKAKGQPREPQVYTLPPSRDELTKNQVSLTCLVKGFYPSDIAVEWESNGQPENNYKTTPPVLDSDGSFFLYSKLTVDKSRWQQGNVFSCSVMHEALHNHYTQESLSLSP
light: B1 light
notes: also called Ho Ab P238_15Y

molecular target: T1, FcγRIIb extracellular domain with …; test: SPR (Biacore), relative binding
Procedure: Analysis of interaction between objective antibody and the FcγR was carried out using Biacore T100 (GE Healthcare). HBS-EP+ (GE Healthcare) was used as the running buffer, and the measurement temperature was set to 25° C. Chips produced by immobilizing the antigen peptide by the amine coupling method to a Series S Sencor Chip CM5 (GE Healthcare), or alternatively, chips produced by allowing preliminarily biotinylated antigen peptides to interact with and immobilize onto a Series S Sensor Chip SA (certified) (GE Healthcare) were used. Antibodies of interest were captured onto an antigen peptide-immobilized chip, and allowed to interact to each FcγR diluted with running buffer. To regenerate and repeatedly use the chip, the antibodies captured on the chip were washed off by reacting 10 mM glycine-HCl, pH 1.5.

| Binder | Ho/Con_2b |
| --- | --- |
| B1 | 111 % of HoCon Ab GpH7-B3/GpL16-k0 |
| B2 | 78.7 % of HoCon Ab GpH7-B3/GpL16-k0 |
| B3 | 127 % of HoCon Ab GpH7-B3/GpL16-k0 |
| B4 | 116 % of HoCon Ab GpH7-B3/GpL16-k0 |
| B5 | 117 % of HoCon Ab GpH7-B3/GpL16-k0 |
| B6 | 159 % of HoCon Ab GpH7-B3/GpL16-k0 |
| B7 | 146 % of HoCon Ab GpH7-B3/GpL16-k0 |
| B8 | 147 % of HoCon Ab GpH7-B3/GpL16-k0 |
| B9 | 20.2 % of HoCon Ab GpH7-B3/GpL16-k0 |
| B10 | 31.8 % of HoCon Ab GpH7-B3/GpL16-k0 |
| B11 | 65.7 % of HoCon Ab GpH7-B3/GpL16-k0 |
| B12 | 159 % of HoCon Ab GpH7-B3/GpL16-k0 |
| B13 | 88.2 % of HoCon Ab GpH7-B3/GpL16-k0 |
| B14 | 106 % of HoCon Ab GpH7-B3/GpL16-k0 |
| B15 | 77 % of HoCon Ab GpH7-B3/GpL16-k0 |
| B16 | 159 % of HoCon Ab GpH7-B3/GpL16-k0 |
| B17 | 44 % of HoCon Ab GpH7-B3/GpL16-k0 |
| B18 | 96.6 % of HoCon Ab GpH7-B3/GpL16-k0 |
| B19 | 209 % of HoCon Ab GpH7-B3/GpL16-k0 |
| B20 | 97.1 % of HoCon Ab GpH7-B3/GpL16-k0 |
| B21 | 207 % of HoCon Ab GpH7-B3/GpL16-k0 |
| B22 | 97.9 % of HoCon Ab GpH7-B3/GpL16-k0 |
| B23 | 114 % of HoCon Ab GpH7-B3/GpL16-k0 |
